Results reported in PMC10413660, “Structural basis of purine nucleotide inhibition of human uncoupling protein 1” (Science Advances, 2023).

B1: human uncoupling protein 1 (UCP1) (natural protein, UniProt P25874 2-307, looked up)
chain: GGLTASDVHPTLGVQLFSAGIAACLADVITFPLDTAKVRLQVQGECPTSSVIRYKGVLGTITAVVKTEGRMKLYSGLPAGLQRQISSASLRIGLYDTVQEFLTAGKETAPSLGSKILAGLTTGGVAVFIGQPTEVVKVRLQAQSHLHGIKPRYTGTYNAYRIIATTEGLTGLWKGTTPNLMRSVIINCTELVTYDLMKEAFVKNNILADDVPCHLVSALIAGFCATAMSSPVDVVKTRFINSPPGQYKSVPNCAMKVFTNEGPTAFFKGLVPSFLRLGSWNVIMFVCFEQLKRELSKSRQTMDCAT
notes: wild-type human UCP1, UniProt P25874; the forward primer joins the His8 tag and Factor Xa site to codon 2 of UCP1, the reverse primer runs to the stop codon; also called SLC25A7; not shown: His8, N-terminal, cleaved

Tests used:
Details in all cases: both partners purified
[1] = molecular target: T1, Pro-macrobody PMb65 (nanobody CA9865 fused with maltose-binding protein via a Pro-Pro linker) (llama (Lama glama) | ); assay: cryo-EM structure; purified UCP1, PMb65 and PMb71 mixed stoichiometrically, overnight at 4°C, with 2 mM GTP and 2 mM D-maltose; 20 mM MES pH 6.0, 150 mM NaCl, 0.02% decyl maltose neopentyl glycol
T1 construct: nanobody CA9865; the structure with PMb65 is deposited as PDB 8G8W (only regions of PMb65 are modelled); Pro-Pro linker between nanobody and MBP; parts of it are removed from the deposited model; also called cytoplasmic Pro-macrobody; source: E. coli MC1061, purified (Ni-NTA, 3C cleavage, Strep-Tactin XT); not shown: MBP with deca-His tag, N-terminal, cleaved

[2] = molecular target: T2, Pro-macrobody PMb71 (nanobody CA9871 fused with maltose-binding protein via a Pro-Pro linker) (llama (Lama glama) | ); assay: as above
T2 construct: nanobody CA9871; the structure with PMb71 is deposited as PDB 8G8W; Pro-Pro linker between nanobody and MBP; also called matrix Pro-macrobody; source: E. coli MC1061, purified (Ni-NTA, 3C cleavage, Strep-Tactin XT); not shown: MBP with deca-His tag, N-terminal, cleaved

[3] = molecular target: B1; assay: thermostability shift assay (cysteine-reactive probe CPM); 5 μg purified human UCP1 with an equimolar amount of nanobody, with or without 1 mM GTP, 1 hour at 4°C; 25° to 90°C at 5.6°C/min

| Binder | binding result [1] | binding result [2] | thermal stabilisation (shift of Tm) [3] [°C] |
| --- | --- | --- | --- |
| B1 | binds | binds | – |
| nanobody CA9871 (VHH, the nanobody part of PMb71, whose structure is deposited as PDB 8G8W; phage display library in the pMESy4 vector; also called nanobody 71) VHH: QVQLVESGGGLVQAGDSLRLSCAASGLTLKNYAMGWFRQAPGKEHEFVAVISWSGSGTSYADSVEGRFTISRDNAKNTAFLQMSSLKPEDTAVYYCAARDGGYGSRWPDEYTYWGQGTQVTVPP | – | – | 0.8 |
| nanobody CA9865 (VHH, the nanobody part of PMb65, whose structure is deposited as PDB 8G8W; phage display library in the pMESy4 vector; also called nanobody 65) VHH: QVQLVESGGGLVQAGGSLRLSCAPSGRTSSTYTMGWFRQAPGKEREFVAAISWTGTPYYADSVKGRFTISRDNAKNTVYLQMNSLKPEDTAVYYCAAARPGLFIFVSDYARTAKYDYWGQGTQVTVPP | – | – | 5 |
